Read-outs that look alike come from different tables or passages of the source.

The values below come from patent publication US20190367619A1 (ARGENX, published 2019).

The target of experiment [1] is T1, human galectin-10-His (recombinant human galectin-10 with TEV-cleavable N-terminal His-tag) (human).
T1 construct: SEC-MALLS: dimer in solution; also called Gal10-His; humanGal10-His
T1 chain: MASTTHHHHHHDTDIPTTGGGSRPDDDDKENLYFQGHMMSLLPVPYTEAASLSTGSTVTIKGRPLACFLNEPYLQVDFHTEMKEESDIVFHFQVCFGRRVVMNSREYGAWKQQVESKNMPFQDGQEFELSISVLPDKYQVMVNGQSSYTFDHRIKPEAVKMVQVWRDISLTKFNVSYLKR
In words: BLI tandem on galectin-10-His; competitor: saturating 6B06 mIgG1 (10 ug/mL). An outline of the steps: (§1)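 Anti-His tips load galectin-10-His → excess saturating mAb → direct transfer to competitor mAb (suboptimal conc.). Read-out: BLI nm shift; no signal = same epitope.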

The target in experiment [2] is T2, TEV-cleaved wild-type recombinant human galectin-10 (soluble, in Fab complexes, or as recombinant galectin-10 … (human, UniProt Q05315 1-142)).
T2 sequence: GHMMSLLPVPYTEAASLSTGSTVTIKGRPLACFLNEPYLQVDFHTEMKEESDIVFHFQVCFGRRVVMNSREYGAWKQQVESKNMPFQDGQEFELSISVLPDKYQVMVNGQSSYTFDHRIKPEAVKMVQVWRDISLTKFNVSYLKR
In words: cell-based or functional assay.

Experiment [3] addresses T1, human galectin-10-His (recombinant …). In words: BLI tandem on galectin-10-His; competitor: saturating 4E08 mIgG1 (10 ug/mL). An outline of the steps: as §1
Experiment [4] has as its target T3, cynomolgus galectin-10-His, WGS isoform (cynomolgus).
T3 construct: not shown: His tag
T3 chain: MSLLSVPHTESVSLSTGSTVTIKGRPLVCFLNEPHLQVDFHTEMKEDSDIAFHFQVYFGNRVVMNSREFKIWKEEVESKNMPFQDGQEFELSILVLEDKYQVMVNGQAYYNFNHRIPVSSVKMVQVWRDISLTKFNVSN
In words: ELISA, mouse IgG1 on coated cynoGal10-His_WGS (0.5 ug/mL). As for the experimental part:
(§2) In a similar setup to that used during the characterization of the scFv-human Fc molecules, the relative binding properties of the 7 mouse IgG1 antibodies were analyzed by ELISA. A Maxisorp plate was coated overnight with 0.5 μg/mL of human or cynomolgus WGS or YRT isoform of galectin-10-His. Then a serial dilution of each clone (from 100 nM, dilution 1/4, 12 points of dilutions) was incubated on coated galectin-10. After several washing steps, detection of the bound mouse IgG1 was carried out with an anti-mouse Fc-HRP antibody (DAMPO, Jackson ImmunoResearch, Catalog 715-035-150). Absorbance was measured at 450 nm (reference at 620 nm) with Tecan instrument. The raw data (OD values) were plotted on GraphPad Prism 7.01. The EC50 values for each antibody, calculated with a non-linear regression (log(agonist) vs. response Variable slope (four parameters)), are shown in the table below. Antibody 1D11 from the previous panel was included for comparison.
In general terms: An ELISA detects its analyte on a solid surface through an enzyme-linked reagent.

In experiment [5] the target is T1, human galectin-10-His (recombinant …). In words: BLI tandem on galectin-10-His; competitor: saturating 1C09 mIgG1 (10 ug/mL). The essentials:
as §1

The target is the same in experiment [6]. In words: SPR Biacore T3000, mouse IgG1 captured by anti-mouse Fc, galectin-10-His as analyte. An outline of the steps: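 Polyclonal anti-mouse Fc on a CM5 chip (8000 RU) captured each mouse IgG1 (1.5 μg/mL) to around 150 RU. Galectin-10-His was then injected as a 1:2 serial dilution from 5 μg/mL in HBS-EP pH7.4. After blank subtraction, kd/KD and Rmax came from a simultaneous ka/kd fit with mass transfer and local Rmax.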
In general terms: SPR reads the build-up and loss of mass on a sensor chip optically.

The target is the same in experiment [7]. In words: BLI tandem on galectin-10-His; competitor: saturating 2C07 mIgG1 (10 ug/mL). The essentials: as §1
Experiment [8] shares this target. The experiment can be described thus: Biacore capture approach (summary table), mouse IgG1. As for the experimental part:
The binding capacity of the mouse IgG1 antibodies to galectin-10 was analyzed on Biacore T3000. For this purpose, a capture approach was set up. A CM5 Chip was coated with polyclonal anti-mouse Fc at 8000 RU, then a fixed concentration of the mouse IgG1 antibody panel (1.5 μg/mL), diluted in HBS-EP pH7.4, was captured to reach a binding signal around 150 RU. Finally, a serial dilution of galectin-10-His (serial dilution, 1 over 2 from 5 μg/mL) diluted in HBS-EP pH7.4 was injected. Raw data were analyzed via BIA evaluation software with a blank subtraction (4-3). The kd/KD and Rmax of each mAb to galectin-10-His was determined using the Fit Kinetics simultaneous ka/kd/Binding with mass transfer/Local Rmax on BIA evaluation software.

For experiment [9] the target is unchanged. In words: ELISA binding (summary table), mouse IgG1.
Experiment [10] has the same target. The experiment can be described thus: BLI tandem on galectin-10-His; competitor: saturating 6E10 mIgG1 (10 ug/mL). An outline of the steps: as §1
Experiment [11] deals with T2, TEV-cleaved wild-type recombinant human …. In words: cell-based or functional assay. The source holds these as a separate data set.
In experiment [12] the target is T4, cynomolgus galectin-10-His, YRT isoform (cynomolgus).
T4 construct: not shown: His tag
T4 chain: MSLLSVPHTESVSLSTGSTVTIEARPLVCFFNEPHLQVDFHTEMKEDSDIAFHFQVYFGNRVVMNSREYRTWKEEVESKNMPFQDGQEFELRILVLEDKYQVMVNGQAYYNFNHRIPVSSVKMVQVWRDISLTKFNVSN
In words: ELISA, mouse IgG1 on coated cynoGal10-His_YRT (0.5 ug/mL). As for the experimental part: as §2

The target in experiment [13] is T1, human galectin-10-His (recombinant …). In words: BLI tandem on galectin-10-His; competitor: saturating 1D11 mIgG1 (10 ug/mL). The essentials: as §1

B1: 1D11 mouse IgG1 (antibody, V domains shown)
VH: QVQLVESGGGLVQPGGSLRLSCAASGFTFDDYAMSWVRQAPGKGLEWVSGISWNGGSTYYAESMKGRFTISRDNAKNTLYLQMNSLKSEDTAVYYCAKDRNLGYRLGYPYDYWGQGTQVTVSS
VL: QSVLTQPPSVSGSPGETVTISCAGTSSDVGYGNYVSWYQQLPGMAPRLLIYEVNKRASGITDRFSGSKSGNTASLTISGLQSEDEGDYYCASYRSSNNAVFGGGTHLTVL
notes: VH on mouse IgG1 heavy chain constant domains (CH1-CH2-CH3), VL on mouse lambda light chain constant domain; also called 1D011; 1D11 mIgG1
As usually defined, the Kd is the free concentration of one partner at which half of the binding sites on the other are occupied at equilibrium, for simple one-to-one binding. Usually koff stands for a measure of how fast the partners let go of each other. The EC50 is the concentration that produces a half-maximal response. Consider B1, for which the “binding signal (nm)” value in experiment [1] is 0 nm; in experiment [3] it was 0 nm; in experiment [5], 0.01 nm; in [7] it was 0.02 nm; in [10], -0.01 nm; in [13] it was 0.06 nm. In addition, in experiment [2], the “100% Inhibition of CLC formation (Conc uM)” value turned out to be 0.34 µM. Further, the “100% Solubilization of CLC (Conc uM)” value in [2] and in [11] was 7.86 µM in each case. Also, the binding result in experiment [4] and in [12] was “no binding” throughout. For the same molecule, the Kd in experiment [6] and in experiment [8] was 1 nM each time. Further, the koff in experiment [6] and in [8] was 0.00529 s⁻¹ in each case. In addition, in [9], the EC50 was 0.1 nM.
